Measured values as given in patent US20250295776A1, “CLEAVAGE RESISTANT CD16 CONSTRUCTS AND USES THEREOF” (Celularity Inc., priority 2022, published 2025).

Key:
Test in all cases: cell-based or functional assay
[1] = molecular target: HER2 (human epidermal growth factor 2) on HER2 overexpressing tumor cell lines (human) (UniProt P04626)
[2] = molecular target: CD16VS (construct #5: 176 V; SCRAMBLED original sequence), without Myc tag (human) (UniProt P08637)
[3] = molecular target: endogenous CD16 on non-transduced (NT) placental NK cells (human) (UniProt P08637)
[4] = molecular target: Construct #10 (176 V (also referred to as 158 V); 197 Serine (S)), without Myc tag (human) (UniProt P08637)
[5] = molecular target: high affinity (158 Val) and proteinase cleavage resistant (197Pro) CD16 variant (CD16VP) (human) (UniProt P08637)
[6] = molecular target: Construct #1 (176 V; 197 Glycine (G)), without Myc tag (human) (UniProt P08637)

Sequence of Avelumab (anti-PD-L1 antibody) (HC): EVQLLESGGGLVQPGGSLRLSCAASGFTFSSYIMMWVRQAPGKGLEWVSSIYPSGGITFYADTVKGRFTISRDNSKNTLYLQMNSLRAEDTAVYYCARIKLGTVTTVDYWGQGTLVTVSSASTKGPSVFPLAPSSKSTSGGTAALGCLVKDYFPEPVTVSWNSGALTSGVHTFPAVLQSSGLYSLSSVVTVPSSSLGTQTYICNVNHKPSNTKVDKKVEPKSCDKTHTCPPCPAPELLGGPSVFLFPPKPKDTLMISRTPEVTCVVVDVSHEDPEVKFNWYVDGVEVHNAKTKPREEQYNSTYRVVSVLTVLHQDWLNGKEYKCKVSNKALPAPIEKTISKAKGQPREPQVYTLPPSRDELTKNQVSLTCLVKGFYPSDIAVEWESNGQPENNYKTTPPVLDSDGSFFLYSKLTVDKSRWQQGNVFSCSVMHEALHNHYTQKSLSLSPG
Sequence of Avelumab (anti-PD-L1 antibody) (LC): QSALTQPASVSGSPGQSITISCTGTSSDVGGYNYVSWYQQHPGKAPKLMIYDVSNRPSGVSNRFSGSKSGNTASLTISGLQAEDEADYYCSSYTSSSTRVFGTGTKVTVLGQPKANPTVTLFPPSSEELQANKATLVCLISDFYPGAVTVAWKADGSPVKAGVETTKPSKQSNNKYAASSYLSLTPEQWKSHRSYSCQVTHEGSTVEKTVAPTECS

Ultra-LEAF purified human IgG1 isotype control recombinant antibody
lysis of NCI-N87 cells by CYNK-101 cells (n=7 donors) in the presence of IgG control, 24 h, E:T 0.6:1, xCELLigence [1]: 7.5%
lysis of OE19 cells by CYNK-101 cells (n=7 donors) in the presence of IgG control, 24 h, E:T 0.6:1, xCELLigence [1]: 14.7%

Avelumab (anti-PD-L1 antibody)
cytolysis of 5637, T-24, RT-112 and NCI-H1975 tumor cell lines by PT-CD16VS cells with Avelumab, 24 hours, 5:1 E:T ratio [2]: 100%
cytolysis of MDA-MB-231 by PT-CD16VS cells with Avelumab, 12 hours, 5:1 E:T ratio [2]: 70%

metalloprotease ADAM17 (from UniProt P78536 215-824) (enzyme)
CD16 shedding after 2 h PMAi, control sample [3]: 60%
CD16 shedding percentage post 2 h PMAi stimulation, NT CYNK cells [3]: 74.7%
CD16 shedding percentage post 2 h PMAi stimulation, transduced CYNK cells (n=6 donors) [4]: 1.8%
CD16 shedding percentage post 2 h PMAi stimulation, transduced CYNK cells (n=6 donors) [2]: 0.6%
CD16 shedding after PMA/ionomycin activation, flow cytometry, PNK-CD16VP cells [5]: < 11%
CD16 shedding percentage post 2 h PMAi stimulation, transduced CYNK cells (n=6 donors) [5]: 4.3%
CD16 shedding percentage post 2 h PMAi stimulation, transduced CYNK cells (n=6 donors) [6]: 9.4%

Daratumumab (anti-CD38) (antibody)
cytotoxicity (ADCC) of NT cells against Daratumumab opsonized Daudi cells, E:T 10:1 (n=5) [3]: 25%
cytotoxicity (ADCC) of NT cells against Daratumumab opsonized HS-Sultan cells, E:T 10:1 (n=3) [3]: 21%
cytotoxicity (ADCC) of NT cells against Daratumumab opsonized Sudh16 cells, E:T 10:1 (n=3) [3]: 16%
cytotoxicity (ADCC) of PNK-CD16VP cells against Daratumumab opsonized Daudi cells, E:T 10:1 (n=5) [5]: 47%
cytotoxicity (ADCC) of PNK-CD16VP cells against Daratumumab opsonized HS-Sultan cells, E:T 10:1 (n=3) [5]: 30%
cytotoxicity (ADCC) of PNK-CD16VP cells against Daratumumab opsonized Sudh16 cells, E:T 10:1 (n=3) [5]: 30%
